Data taken from publication PMC11966780.

Key:
Assay in all cases: label-free LC-MS/MS
[1] = molecular target: AAV-DJ capsid incorporating VP3 with the ALFAnb inserted at position H631 (AAV-DJ | not stated)
[2] = molecular target: AAV-DJ capsid incorporating VP1 with a GFPnb inserted at position H631 (AAV-DJ | not stated)
[3] = molecular target: AAV-DJ capsid incorporating VP3 with a GFPnb inserted at position H631 (AAV-DJ | not stated)

Row | Substance | GFP/capsid (GFP-NLS-ALFA proteins per capsid) [1] | GFP/capsid, Rep1 [1] [GFP/capsid] | GFP/capsid, Rep3 [1] [GFP/capsid] | GFP/capsid, avg [1] [GFP/capsid] | GFP/capsid (GFP-NLS per capsid) [2] | GFP/capsid, Rep1 [2] [GFP/capsid] | GFP/capsid, Rep2 [2] [GFP/capsid] | GFP/capsid, Rep3 [2] [GFP/capsid] | GFP/capsid, avg [2] [GFP/capsid] | GFP/capsid (GFP-NLS per capsid) [3] | GFP/capsid, Rep1 [3] [GFP/capsid] | GFP/capsid, Rep2 [3] [GFP/capsid] | GFP/capsid, Rep3 [3] [GFP/capsid]
1 | GFP C-terminally tagged with a c-Myc NLS followed by the ALFA tag | 1 to 9 | 8.63 | 0.3 | 3.35 | – | – | – | – | – | – | – | – | –
2 | GFP tagged with a c-Myc NLS at the C-terminus | – | – | – | – | 1 to 3 | 0.89 | 2.27 | 0.81 | 1.33 | 3 to 15 | 13.1 | 2.17 | 1.35
3 | green fluorescent protein (GFP) (from UniProt P42212 1-238) (natural protein) | – | – | – | – | – | 0.89 | 0.73 | 0.33 | 0.65 | – | – | – | –
